Assay Signal Neg (blank) and Assay Signal Pos data for 1 molecule are collected here from patent US20180356429A1.

Test [1] concerns the target Recombinant human IL-13 (R&D Systems, MN, catalog no. 213-ILB/CF) (human) (UniProt P35225). Nature of the test: sandwich pair screen, negative (blank) signal, binder is detection Ab; capture Ab 32116.
For test [2] the target is unchanged. Nature of the test: sandwich pair screen, negative (blank) signal, binder is detection Ab; capture Ab 8C11.
The target is the same in test [3]. Nature of the test: sandwich pair screen, 100 pg/mL recombinant IL-13, binder is detection Ab; capture Ab 228B/C.
For test [4] the target is unchanged. Nature of the test: sandwich pair screen, negative (blank) signal, binder is detection Ab; capture Ab 11H4.
The target is the same in test [5]. Briefly: sandwich pair screen, negative (blank) signal, binder is detection Ab; capture Ab 4D7.
Test [6] has the same target. Briefly: sandwich pair screen, 100 pg/mL recombinant IL-13, binder is detection Ab; capture Ab 14C9.
For test [7] the target is unchanged. Nature of the test: sandwich pair screen, negative (blank) signal, binder is detection Ab; capture Ab 228B/C.
The target is the same in test [8]. Briefly: sandwich pair screen, 100 pg/mL recombinant IL-13, binder is detection Ab; capture Ab 11H4.
The target is the same in test [9]. Nature of the test: sandwich pair screen, negative (blank) signal, binder is detection Ab; capture Ab 14C9.
Test [10] shares this target. Nature of the test: sandwich pair screen, 100 pg/mL recombinant IL-13, binder is detection Ab; capture Ab 32116.
The target is the same in test [11]. Nature of the test: sandwich pair screen, 100 pg/mL recombinant IL-13, binder is detection Ab; capture Ab 4D7.
For test [12] the target is unchanged. Briefly: sandwich pair screen, 100 pg/mL recombinant IL-13, binder is detection Ab; capture Ab MILR1444A.
For test [13] the target is unchanged. Nature of the test: sandwich pair screen, negative (blank) signal, binder is detection Ab; capture Ab MILR1444A.
Test [14] shares this target. Briefly: sandwich pair screen, 100 pg/mL recombinant IL-13, binder is detection Ab; capture Ab 8C11.

Recombinant human IL-13 (R&D Systems, MN, catalog no. 213-ILB/CF) (human), sequence (P35225 other isoform, or with tags, fused parts or gaps): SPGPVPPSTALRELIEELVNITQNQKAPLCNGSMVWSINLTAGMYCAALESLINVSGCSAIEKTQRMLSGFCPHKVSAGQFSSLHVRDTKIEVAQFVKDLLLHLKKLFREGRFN

B1: 228B/C (antibody, from a related filing, V domains shown)
VH: QVQLQESGPGLVAPSQSLSITCTVSGFSLNAYSVNWVRQPPGKGLEWLGMIWGDGKIVYNSALKSRLNISKDSSKSQVFLKMSSLQSDDTARYYCAGDGYYPYAMDNWGHGTSVTVSS
VL: NIVLTQSPASLAVSLGQRATISCRASKSVDSYGNSFMHWYQQKPGQPPKLLIYLASNLESGVPARFSGSGSRTDFTLTIDPVEADDAASYYCQQNNEDPRTFGGGTKLEIK
For B1, the Assay Signal Neg (blank) in test [1] was 15.2; in test [2] it was 3.9; in [4], 22.4; in test [5], 24.7; in test [7], 26.6; in [9], 29. The Assay Signal Neg (blank) in test [13] worked out at 5.4. Also, the Assay Signal Pos in test [3] was 27.7; in [6], 70.3; in test [8], 9540; in [10] it was 126; in test [11] it was 29.9; in test [12], 6. For the same molecule, the Assay Signal Pos in test [14] is 25.4.
